Laboratory results published in patent US20160274110A1 (Novartis, published 2016).

T1: human GPR15 (human, UniProt P49685 1-360)
T1 sequence (looked up): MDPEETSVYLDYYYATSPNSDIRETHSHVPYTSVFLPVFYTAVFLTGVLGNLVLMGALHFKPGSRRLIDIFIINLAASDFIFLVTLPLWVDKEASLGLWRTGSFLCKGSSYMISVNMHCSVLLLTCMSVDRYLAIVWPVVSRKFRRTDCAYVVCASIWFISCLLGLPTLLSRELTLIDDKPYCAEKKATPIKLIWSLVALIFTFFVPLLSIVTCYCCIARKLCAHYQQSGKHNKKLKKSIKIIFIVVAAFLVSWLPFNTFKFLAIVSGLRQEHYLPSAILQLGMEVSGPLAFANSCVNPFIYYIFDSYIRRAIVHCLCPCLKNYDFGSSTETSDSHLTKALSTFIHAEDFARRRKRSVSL

T2: mouse GPR15 (mouse, UniProt Q0VDU3 1-360)
T2 sequence (looked up): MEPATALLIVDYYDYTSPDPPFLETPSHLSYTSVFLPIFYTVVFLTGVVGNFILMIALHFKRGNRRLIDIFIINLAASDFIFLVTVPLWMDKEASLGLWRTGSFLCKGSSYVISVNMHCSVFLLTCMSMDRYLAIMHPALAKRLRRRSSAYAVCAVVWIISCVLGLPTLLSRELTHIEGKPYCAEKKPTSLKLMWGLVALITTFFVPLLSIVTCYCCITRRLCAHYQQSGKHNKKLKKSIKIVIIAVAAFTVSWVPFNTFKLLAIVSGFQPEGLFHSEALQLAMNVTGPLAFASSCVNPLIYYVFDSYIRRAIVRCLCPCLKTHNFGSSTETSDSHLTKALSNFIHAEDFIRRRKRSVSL

B1: c10orf99 1-57, synthetic peptide KRRPAKAWSGRRTRLCCHRVPSPNSTNLKGHHVRLCKPCKLEPEPRLWVVPGALPQV (SEQ ID NO: 6) (ligand)
peptide: KRRPAKAWSGRRTRLCCHRVPSPNSTNLKGHHVRLCKPCKLEPEPRLWVVPGALPQV

Tests used:
human GPR15 = molecular target: T1, human GPR15; assay: cell-based or functional assay
mouse GPR15 = molecular target: T2, mouse GPR15; assay: cell-based or functional assay

Binder | EC50 in in vitro cellular assays (aequorin assay; cAMP in CHO-GPR15 and HEK-GPR15 cell lines) (human GPR15) [nM] | EC50 of GPR15 activation, Aequorin assay (luminescence, calcium) (mouse GPR15) [nM] | EC50 of GPR15 activation, Aequorin assay (luminescence, calcium) (human GPR15) [nM]
B1 | < 10 | – | –
QKPQLWVVPGALPQV | – | ~2000 | ~2000
